Experimental data reported in patent publication US20230265192A1.

Legend:
Assay in all cases: cell-based or functional assay
[1] = biological target: human FcγRIIa, high-affinity H131 variant, on Jurkat/NFAT-Luc effector cells (human) (UniProt P12318)
[2] = biological target: human FcγRIIa, low-affinity R131 variant, on Jurkat/NFAT-Luc effector cells (human) (UniProt P12318)
[3] = biological target: human FcγRIIb on Jurkat/NFAT-Luc effector cells (human) (UniProt P31994)
[4] = biological target: mouse FcγRIII on Jurkat/NFAT-Luc effector cells (mouse) (UniProt P08508)
Sequence of mouse FcγRIII on Jurkat/NFAT-Luc effector cells (mouse) (P08508 31-261): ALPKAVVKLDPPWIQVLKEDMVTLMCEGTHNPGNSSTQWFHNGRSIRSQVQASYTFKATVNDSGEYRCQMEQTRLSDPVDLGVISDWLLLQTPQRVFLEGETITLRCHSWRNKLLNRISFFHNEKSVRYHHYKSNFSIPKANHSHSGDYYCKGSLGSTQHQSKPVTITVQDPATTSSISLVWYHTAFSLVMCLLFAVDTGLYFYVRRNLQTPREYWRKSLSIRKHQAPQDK

[5] = biological target: mouse FcγRIV on Jurkat/NFAT-Luc effector cells (mouse)
Sequence of mouse FcγRIV on Jurkat/NFAT-Luc effector cells (mouse) (A0A0B4J1G0 21-203): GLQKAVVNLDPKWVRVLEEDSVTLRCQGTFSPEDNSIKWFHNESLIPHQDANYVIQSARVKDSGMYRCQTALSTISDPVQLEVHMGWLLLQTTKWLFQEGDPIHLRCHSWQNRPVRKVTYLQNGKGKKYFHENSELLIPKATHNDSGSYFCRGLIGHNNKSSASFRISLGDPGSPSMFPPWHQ

Sequence of human FcγRIIa, high-affinity H131 variant, on Jurkat/NFAT-Luc effector cells (human) (P12318 34-317, change not shown): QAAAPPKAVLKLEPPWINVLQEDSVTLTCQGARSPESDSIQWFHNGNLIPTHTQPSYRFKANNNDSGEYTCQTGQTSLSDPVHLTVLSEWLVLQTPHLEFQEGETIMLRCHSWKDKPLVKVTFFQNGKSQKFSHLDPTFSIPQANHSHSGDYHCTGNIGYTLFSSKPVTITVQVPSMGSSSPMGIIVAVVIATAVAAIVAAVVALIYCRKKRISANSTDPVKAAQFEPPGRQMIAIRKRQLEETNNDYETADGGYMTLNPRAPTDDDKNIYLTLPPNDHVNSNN
Sequence of human FcγRIIa, low-affinity R131 variant, on Jurkat/NFAT-Luc effector cells (human) (P12318 other isoform, or with tags, fused parts or gaps mutant limits assumed): as the sequence (P12318 34-317, change not shown) above, with H134R counted along it
Sequence of human FcγRIIb on Jurkat/NFAT-Luc effector cells (human) (P31994 43-310): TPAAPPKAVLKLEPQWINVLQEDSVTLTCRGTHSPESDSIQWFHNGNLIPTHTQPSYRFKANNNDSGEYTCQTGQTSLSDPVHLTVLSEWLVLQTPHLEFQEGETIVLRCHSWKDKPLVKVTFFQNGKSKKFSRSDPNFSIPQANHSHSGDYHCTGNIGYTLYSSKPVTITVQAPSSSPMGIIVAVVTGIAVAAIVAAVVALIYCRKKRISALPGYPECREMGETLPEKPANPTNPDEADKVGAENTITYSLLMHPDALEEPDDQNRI

Ipilimumab (antibody)
EC50 (µg/mL), FcR reporter bioassay [1]: 0.05 µg/mL | Maximum luminescence (RLU), FcR reporter bioassay [1]: 973 RLU | EC50 (µg/mL), FcR reporter bioassay [2]: 0.21 µg/mL | Maximum luminescence (RLU), FcR reporter bioassay [2]: 2640 RLU | EC50 (µg/mL), FcR reporter bioassay [3]: 0.17 µg/mL | Maximum luminescence (RLU), FcR reporter bioassay [3]: 5800 RLU | Maximum luminescence (RLU), FcR reporter bioassay [4]: 17500 RLU | EC50 (µg/mL), FcR reporter bioassay [5]: 2.21 µg/mL | Maximum luminescence (RLU), FcR reporter bioassay [5]: 990 RLU
